Assay results as given in patent publication US20240118200A1.

What was measured:
[1] = target: glycoproteins on HeLa cells; assay: SPR imaging on fixed HeLa cells on gold, 50 µg/ml WGA, average of 10 cells, first order kinetic fit
[2] = target: glycoproteins on HeLa cells; assay: CAR imaging on fixed HeLa cells on glass, 50 µg/ml WGA, average over cells, first order kinetic fit

- Kd [1]: 53 nM
- koff [1]: 0.00013 s⁻¹
- kon [1]: 2500 M⁻¹ s⁻¹
- Kd [2]: 42 nM
- koff [2]: 0.00026 s⁻¹
- kon [2]: 6000 M⁻¹ s⁻¹
B1: wheat germ agglutinin (WGA) with Alexa Fluor 488 tag (protein, UniProt P10968 27-197, looked up)
chain: QRCGEQGSNMECPNNLCCSQYGYCGMGGDYCGKGCQNGACWTSKRCGSQAGGATCTNNQCCSQYGYCGFGAEYCGAGCQGGPCRADIKCGSQAGGKLCPNNLCCSQWGFCGLGSEFCGGGCQSGACSTDKPCGKDAGGRVCTNNYCCSKWGSCGIGPGYCGAGCQSGGCDG
modifications: Alexa Fluor 488 label, site not stated
